Assay [1] deals with hematopoietic growth factor receptor c-MPL (myeloproliferative leukemia), the receptor for thrombopoietin, transgenic on human T cells (Homo sapiens (Human)) (UniProt P40238). In words: cell-based or functional assay.
Assay [2] concerns BV173 leukemia cells. In words: Serial (sequential) co-culture with BV173 leukemia cells. It is filed as cell-based, human. How it is done:
(§1) Cells were stained ith antibodies and analyzed by flow cytometry. Cells were stained with FITC-, phycoerythrin- (PE-), peridinin chlorophyll protein-(PerCP-), or allophycocyanin-conjugated (APC-conjugated) antibodies (Abs) against CD3, CD4, CD8, CD110 (c-MPL), murine TCR constant region (mCβ, ebioscience), CD19, or CD138. Cell viability was assessed by 7-AAD staining. T cells and tumor cell populations from co-culture assays were quantified by adding CountBright Beads (Invitrogen) to the analysis. T cell memory marker expression on CD8+ T cells re-covered from co-cultures was analyzed by staining cells with FITC-, PE-, ECD-, PerCP-, APC-, APC-AF750, or V450-conjugated Abs against CD45RO, CD45RA, CD62L, CCR7, CD110, mCβ, CD19, and 7AAD. Intracellular staining for phosphoproteins pSTAT3 and pSTAT5 was performed with PE- and Pacific Blue-conjugated Abs and Phosflow reagents (BD). To assess cell proliferation, cells were labeled with Carboxyfluorescein succinimidyl ester (CFSE, ThermoFisher) and analyzed after 7 days of culture. All antibodies were purchased from BD or Beckman Coulter unless otherwise indicated, and all staining procedures were performed according to the manufacturer's recommendation. Data acquisition was performed on a BD FACSCalibur using CellQuest software or a Beckman Coulter Gallios flow cytometer using Kaluza software. Data analysis was performed with FlowJo software (Tree Star Inc.).
BV173 or U266B1 cells and T cells were co-cultured in up to eight replicate wells at various E:T ratios in CTL media with no cytokines, rhTPO (5 ng/mL or 50 ng/mL), or EP (0.1 μg/mL). […] Co-culture supernatants were harvested 24 hours after initial plating or tumor-cell add-back to replicate wells and stored at −80° C. for further analysis.

Assay [3] relates to BV173 leukemia cells. In words: Co-culture of TCR+c-MPL+ T cells with BV173 leukemia cells. It is filed as cell-based, human. The settings on record: day 5, E:T 1:3; rhTPO 50 ng/ml, IL2 25 U/ml; noCK 16.7±8.1×10^4. How it is done:
as §1, with “Data analysis was performed with FlowJo software (Tree Star Inc.).” left out

A further assay relates to c-MPL+ T cells. In words: Expansion of polyclonal c-MPL+ T cells in TPO. The format is cell-based, human. The settings on record: cell number from 3×10^6 cells, TPO 50 ng/ml, mean±SD, n=4. How it is done:
(§2) […] Transient retroviral supernatant was prepared by transfection of 293T cells and activated T cells were transduced as described (Arber et al., 2015). The number of retroviral integrants in TCR+c-MPL+ T cells was estimated by quantitative PCR. Whole PBMC's were isolated from fresh buffy coats by Lymphoprep (Axis-Shield) density gradient centrifugation. If required, CD8+ T cells were isolated from PBMCs using magnetic beads and columns (Miltenyi Biotec). […]
(§3) Cells were stained ith antibodies and analyzed by flow cytometry. […] Cell viability was assessed by 7-AAD staining. T cells and tumor cell populations from co-culture assays were quantified by adding CountBright Beads (Invitrogen) to the analysis. T cell memory marker expression on CD8+ T cells re-covered from co-cultures was analyzed by staining cells with FITC-, PE-, ECD-, PerCP-, APC-, APC-AF750, or V450-conjugated Abs against CD45RO, CD45RA, CD62L, CCR7, CD110, mCβ, CD19, and 7AAD. […] To assess cell proliferation, cells were labeled with Carboxyfluorescein succinimidyl ester (CFSE, ThermoFisher) and analyzed after 7 days of culture. […]

Another assay concerns U266 myeloma cells. In words: Co-culture of TCR+c-MPL+ T cells with U266 myeloma cells. It is filed as cell-based, human. The settings on record: rhTPO 50 ng/ml, IL2 25 U/ml, n=3. How it is done:
as §1, with “Data analysis was performed with FlowJo software (Tree Star Inc.).” left out

A further assay concerns NT T cells. In words: Expansion of non-transduced (NT) T cells in TPO. The format is cell-based, human. Conditions: cell number from 3×10^6 cells, TPO 50 ng/ml, mean±SD, n=4. How it is done: as §2, §3
For assay [4], the system named is immune synapses between TCR+c-MPL+ T cells and BV173 leukemia cells. In words: Immunological synapse imaging (confocal microscopy). It is filed as cell-based, human. The settings on record: mean±SD. The method, then:
T cells isolated from sequential killing co-cultures and fresh BV173 target cells were mixed at E:T 1:2, incubated for 10 minutes, fixed, permeabilized, stained with the appropriate antibodies, and analyzed on a Leica TCS SP8 laser scanning microscope. T cells were co-cultured with BV173 cells at an E:T ratio of 1:5 in CTL media with no cytokines, rhTPO (50 ng/mL) or EP (0.1 μg/mL). After one killing (no cytokine condition) or three sequential killings (rhTPO and EP conditions), cells were collected and dead cells removed (Dead Cell Removal Kit, Miltenyi) (FIG. 4A). For confocal microscopy, T cells and fresh BV173 target cells were mixed at E:T ratio of 1:2, incubated for ten minutes in a tube and ten minutes on silane-coated glass slides (Electron Microscopy Sciences) at 37° C. Cells were then permeabilized and fixed with Perm/Fix solution (BD) for 15 minutes at room temperature and stained with anti-Pericentrin (rabbit, Abcam) and anti-Perforin Alexa-488 (mouse, BD Biosciences) primary antibodies. Phalloidin 568 (Life Technologies) was used to detect F-actin. Cells were imaged as Z stacks of 0.2 μm thickness to cover their entire volume on a Leica TCS SP8 laser scanning microscope using a 100× objective. Images were acquired with the LASAF software (Leica) and analyzed with Imaris software (Imaris) and Fiji.

Another assay deals with c-MPL+ cells. In words: c-MPL ligand-dependent STAT3/STAT5 phosphorylation in TCR+c-MPL+ T cells. It is filed as cell-based, human. The settings on record: TPO 50 ng/ml or EP 0.1 μg/ml, 1 or 24 hours; c-MPL- cells did not. How it is done: Similar results were obtained with the TPO small molecule agonist EP. A dose-titration experiment was used to determine the optimal concentration of EP to support c-MPL+ T cell expansion (FIG. 2C). EP was previously shown to inhibit leukemia cell proliferation at higher concentrations (1-10 μg/ml) by reduction of intracellular iron, a c-MPL independent effect (Roth et al., 2012). NT or c-MPL+ T cells were re-activated on OKT3/CD28-coated plates in the presence of different EP concentrations and expansion of viable T cells was determined after 7 days. […] Next, it was evaluated whether rhTPO enhanced the anti-tumor function of TCR+c-MPL+ T cells using two different HLA-A*0201+survivin+hematologic malignancies as targets (U266 multiple myeloma, BV173 leukemia) (FIGS. 2E-2F). […]
Cells were stained ith antibodies and analyzed by flow cytometry. […] Cell viability was assessed by 7-AAD staining. T cells and tumor cell populations from co-culture assays were quantified by adding CountBright Beads (Invitrogen) to the analysis. T cell memory marker expression on CD8+ T cells re-covered from co-cultures was analyzed by staining cells with FITC-, PE-, ECD-, PerCP-, APC-, APC-AF750, or V450-conjugated Abs against CD45RO, CD45RA, CD62L, CCR7, CD110, mCβ, CD19, and 7AAD. […]

Assay [5] concerns TCR+c-MPL+ T cells. In words: Antigen-specific expansion with survivin peptide-pulsed aAPCs, TCR+c-MPL+ T cells. The format is cell-based, human. Conditions: rhTPO 5, 50, 500 ng/ml, two stimulations. How it is done: aAPCs (described above) were pulsed with the […] survivin peptide (Genemed Synthesis), irradiated at 100 cGy, and used to stimulate T cells at an E:T ratio of 4:1 with IL-2 (50 U/mL) or rhTPO (5 ng/mL, 50 ng/mL, or 500 ng/mL). At the end of the first stimulation (7 days), cells were collected, counted, phenotyped and re-stimulated with fresh peptide-pulsed aAPCs under the same conditions. Fold expansion was recorded at the end of the second stimulation.

The next assay concerns TCR+ T cells. In words: Antigen-specific expansion with survivin peptide-pulsed aAPCs, TCR+ T cells. It is filed as cell-based, human. Conditions: IL-2 50 U/mL; rhTPO up to 500 ng/ml. How it is done: At the end of the first stimulation (7 days), cells were collected, counted, phenotyped and re-stimulated with fresh peptide-pulsed aAPCs under the same conditions. Fold expansion was recorded at the end of the second stimulation.

The subject of assay [6] is c-MPL downstream signaling in c-MPL+ T cells. In words: Phosflow for pSTAT5, c-MPL downstream signaling. It is filed as cell-based, human. The settings on record: rhTPO 5 and 50 ng/ml; EP 0.1 μg/ml; 1 or 24 hours. The method, then: as §1, with “Data analysis was performed with FlowJo software (Tree Star Inc.).” left out
Assay [7] has as its system TCR+c-MPL+ T cells. In words: RNA-sequencing and GSEA of sequential killer T cells. The format is cell-based, human. The settings on record: after 3 BV173 challenges, rhTPO 50 ng/mL or EP 0.1 μg/mL. The text has this: Total RNA was extracted from T cells of 3 independent donors, purified after sequential co-culture in no cytokine, rhTPO or EP (see above and FIG. 4A) using the RNeasy Mini Kit (Qiagen). T cell purification consisted of either dead cell removal alone (see above) or dead cell removal followed by FACS sorting (FACS Aria, BD, Flow Cytometry Core Laboratory at the Texas Children's Hospital Feigin Center), to achieve a >98% T cell purity and T cell viability of >90%. Total RNA samples were sent to GENEWIZ for library preparation and next generation sequencing, with 30 million reads per sample at a 1×50 base pair configuration.
RNA-Seq was performed in triplicates from 3 independent donors for all 3 conditions (control, rhTPO and EP; see main text). Fastq files were aligned to the transcriptome using HiSat2 with default parameters (Kim et al., 2015). Following alignment and quality control analysis, one replicate of the control dataset was removed due to poor signal to noise ratio. Transcripts were assembled and FPKM values were generated using cuffquant and cuffnorm from the cufflinks software suite (Trapnell et al., 2010) Active transcripts were defined as transcripts with a normalized FPKM value greater than 1 in at least one sample. […]

[8] abbreviates: after three tumor cell challenges.
The mark [9] stands for this setting: baseline after T cell expansion.

In assay [1], “recombinant human thrombopoietin (TPO) (from UniProt P40225 22-195) (ligand)” had a T cell expansion in TPO 50 ng/ml (cell number by day 7 from 3x10^6 cells) of 7.44e+06 cells.

B1: thrombopoietin (protein)
chain: SPAPPACDLRVLSKLLRDSHVLHSRLSQCPEVHPLPTPVLLPAVDFSLGEWKTQMEETKAQDILGAVTLLLEGVMAARGQLGPTCLSSLLGQLSGQVRLLLGALQSLLGTQLPPQGRTTAHKDPNAIFLSFQHLLRGKVRFLMLVGGSTLCVRRAPPTTAVPSRTSLVLTLNEL
notes: recombinant human thrombopoietin, ligand of c-MPL
Take B1: in the assay on BV173 leukemia cells [2] (E:T 1:5, versus no cytokines), the “T cell expansion in serial co-culture” value is listed as “significantly enhanced”. The “CD45RA+CD45RO+ and central memory cells among persistent T cells” value with BV173 leukemia cells [2] (serial co-culture) is listed as “enrichment”. Besides, the “Th1 cytokine production in sequential co-cultures” value with BV173 leukemia cells [2] (supernatants 24 hours after tumor cell challenge) is listed as “sustained”. In the assay with BV173 leukemia cells [3], the “T cell count in BV173 co-culture” value is 31.5±19.1×10^4. For the same molecule, the “c-MPL+ cells in TPO by day 7” value in the assay on c-MPL+ T cells is reported as 7.44±0.99×10^6. Besides, the “residual U266 cells” value with U266 myeloma cells (day 5, E:T 1:1, TCR+c-MPL+ T cells, noCK 43.3±1.1×10^5) was 22.8±11.2×10^5. Also, in the assay on U266 myeloma cells (day 5, E:T 1:1, noCK 1.84±0.31×10^5), the “T cell count in U266 co-culture” value is 4.41±5.11×10^5. The “NT cells in TPO by day 7” value in the assay on NT T cells is given as 0.89±0.61×10^6. Besides, in assay [4] (setting [8]), the “MTOC to synapse distance, co-culture” value is given as 1.46±1.58 μm and the “perforin distance to the synapse (perforin convergence), co-culture” value is 3.68±1.70 μm. Further, the “actin accumulation at the synapse, co-culture” value in assay [4] (after three tumor cell challenges, rhTPO 50 ng/mL or EP 0.1 μg/mL) is reported as 52.60±16.32%. For the same molecule, in assay [4] (setting [9]), the “MTOC to synapse distance, baseline” value came out at 3.96±2.49 μm; the “actin accumulation at the synapse, baseline” value is recorded as 35.23±16.41%; the “perforin distance to the synapse (perforin convergence), baseline” value was 3.53±1.00 μm. In the assay on c-MPL+ cells, the “STAT3 and STAT5 phosphorylation in c-MPL+ cells” value is “phosphorylated”. For the same molecule, the “antigen-specific expansion of TCR+c-MPL+ T cells” value in the assay with TCR+c-MPL+ T cells [5] was “expanded in a TPO-dose dependent manner”. In the assay with TCR+ T cells, the “antigen-specific expansion of TCR+ T cells” value was “not”. Besides, the “STAT5 phosphorylation in c-MPL+ T cells” value in assay [6] is “occurred”. Further, the “cell cycle associated genes in T cells from treated co-cultures versus controls” value in the assay with TCR+c-MPL+ T cells [7] is “downregulated”.

These data come from US20200016207A1, “[…] c-MPL PROVIDES LIGAND-DEPENDENT CO-STIMULATION AND CYTOKINE SIGNALS TO TCR-ENGINEERED T CELLS” (Baylor College of Medicine, priority 2017, published 2020).
